# Data as given in patent US20250066503A1, “CELL INJURY INDUCING THERAPEUTIC DRUG FOR USE IN CANCER THERAPY” (CHUGAI SEIYAKU KABUSHIKI KAISHA, priority 2016, published 2025).
# “And” between values parts separate entries of the source, which are not always exact repeats. Identical values can stand only once.
# Target: T1, soluble human CD3 epsilon chain (human, UniProt P07766 23-126)
# T1 construct: also called CD3ε
# Assay: SPR
# T1 sequence (P07766 23-126 limits assumed): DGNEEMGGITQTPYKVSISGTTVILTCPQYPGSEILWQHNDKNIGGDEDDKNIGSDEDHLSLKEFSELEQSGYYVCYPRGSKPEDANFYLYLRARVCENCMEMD
row,Kd,Binder
1,124 nM and 138 nM,"rCE115H-E22Hh/none-Hi-Kn010G3/rCE115L-k0 (antibody, human IgG1, kappa, L234A L235A, N297A, V domains shown, one-arm; also called rCE115H-E22Hh//-Hi-Kn010G3/rCE115L-k0) VH: EVQLVETGGSLVQPGKSLKLTCATSGFTFSNAWMHWVRQSPEKQLEWVAQIKAKSNNYATYYAESVKGRFTISRDDSKSNIYLQMNSLKEEDTAVYYCRYVHYGAYYGVDAWGQGTSVTVSS VL: DVVMTQTPVSMSVSLGGQVSISCRSSQSLVHNNGNTYVSWYIQKPSQSPQLLIYKVSNRFSGISDRFSGSGSGTDFTLKISRVEPDDLGVYYCGQGTQDPYTFGAGTKLELKR"
2,6.12 nM,"TR01H077-E22Hh/none-Hi-Kn010G3/L0200-k0 (antibody, V domains shown, one-arm) VH: QVQLVESGGGLVQPGRSLRLSCAASGFTFSNAWMHWVRQAPGKGLEWVAQIKDKSNNYATYYAESVKGRFTISRADSKNSIYLQMNSLKTEDTAVYYCRYVHYAAAEMVRDDIWGQGTTVTVSS VL: DIVMTQSPLSLPVTPGEPASISCRPSQSPVHSNRNTYLHWYQQKPGQAPRLLIYKVSNRFSGVPDRFSGSGSGTDFTLKISRVEAEDVGVYYCGQGTQVPYTFGQGTKLEIK"
3,12.1 nM,"TR01H067-E22Hh/none-Hi-Kn010G3/TR01L019-k0 (antibody, V domains shown, one-arm) VH: QVQLVESGGGLVQPGRSLRLSCAASGFTFSNAWMHWVRQAPGKGLEWVAQIKDKSQNYATYYAESVKGRFTISRDDSKNSLYLQMNSLKTEDTAVYYCRYVHYAASYGVDAWGQGTTVTVSS VL: DIVMTQSPLSLPVTPGEPASISCQASESPVHSNRNTYLHWYLQKPGQSPQLLIYKVSNRFSGVPDRFSGSGSGTDFTLKISRVEAEDVGVYYCYQGTQVPYTFGQGTKLEIK"
4,3.2 nM,"TR01H040-E22Hh/none-Hi-Kn010G3/TR01L019-k0 (antibody, V domains shown, one-arm) VH: QVQLVESGGGLVQPGRSLRLSCAASGFTFSNAWMHWVRQAPGKGLEWVAQIKDKSQNYATYYAESVKGRFTISRADSKNSIYLQMNSLKTEDTAVYYCRYVHYSASYGVDAWGQGTTVTVSS VL: DIVMTQSPLSLPVTPGEPASISCQASESPVHSNRNTYLHWYLQKPGQSPQLLIYKVSNRFSGVPDRFSGSGSGTDFTLKISRVEAEDVGVYYCYQGTQVPYTFGQGTKLEIK"
5,4.14 nM,"TR01H084-E2702GsKsc/none-Hi-E2704sE/L0011-k0 (antibody, human IgG4 S228P, kappa, N297A, V domains shown, one-arm) VH: QVQLVESGGGVVQPGGSLRLSCAASGFTFSNAWMHWVRQAPGKGLEWVAQIKDKSQNYATYYAESVKGRFTISRADSKNSIYLQMNSLKTEDTAVYYCRYVHYAAGYGVDIWGQGTTVTVSS VL: DIVMTQSPLSLPVTPGEPASISCRSSQPLVHSNRNTYLHWYQQKPGQAPRLLIYKVSNRFSGVPDRFSGSGSGTDFTLKISRVEAEDVGVYYCGQGTQVPYTFGQGTKLEIKR"
6,5.14 nM,"TR01H113-E2702GsKsc/none-Hi-E2704sE/L0011-k0 (antibody, human IgG4 S228P, kappa, N297A, V domains shown, one-arm) VH: QVQLVESGGGVVQPGGSLRLSCAASGFTFSNAWMHWVRQAPGKGLEWVAQIKDKSQNYATYVAESVKGRFTISRADSKNSIYLQMNSLKTEDTAVYYCRYVHYAAGYGVDIWGQGTTVTVSS VL: DIVMTQSPLSLPVTPGEPASISCRSSQPLVHSNRNTYLHWYQQKPGQAPRLLIYKVSNRFSGVPDRFSGSGSGTDFTLKISRVEAEDVGVYYCGQGTQVPYTFGQGTKLEIKR"
7,10.1 nM,"TR01H082-E2702GsKsc/none-Hi-E2704sE/L0011-k0 (antibody, human IgG4 S228P, kappa, N297A, V domains shown, one-arm) VH: QVQLVESGGGLVQPGRSLRLSCAASGFTFSNAWMHWVRQAPGKGLEWVAQIKDKSQNYATYYAESVKGRFTISRDDSKNSLYLQMNSLKTEDTAVYYCRYVHYAAGYGVDAWGQGTTVTVSS VL: DIVMTQSPLSLPVTPGEPASISCRSSQPLVHSNRNTYLHWYQQKPGQAPRLLIYKVSNRFSGVPDRFSGSGSGTDFTLKISRVEAEDVGVYYCGQGTQVPYTFGQGTKLEIKR"
8,16.4 nM,"TR01H109-E2702GsKsc/none-Hi-E2704sE/L0011-k0 (antibody, human IgG4 S228P, kappa, N297A, V domains shown, one-arm) VH: QVQLVESGGGLVQPGRSLRLSCAASGFTFSNAWMHWVRQAPGKGLEWVAQIKDKSQNYATYVAESVKGRFTISRDDSKNSLYLQMNSLKTEDTAVYYCRYVHYAAGYGVDAWGQGTTVTVSS VL: DIVMTQSPLSLPVTPGEPASISCRSSQPLVHSNRNTYLHWYQQKPGQAPRLLIYKVSNRFSGVPDRFSGSGSGTDFTLKISRVEAEDVGVYYCGQGTQVPYTFGQGTKLEIKR"

# Target: T2, human GPC3 (human, UniProt P51654 25-563)
# T2 construct: range 25-563; soluble analyte; also called soluble human GPC3; glypican 3
# T2 sequence (P51654 25-563 limits assumed): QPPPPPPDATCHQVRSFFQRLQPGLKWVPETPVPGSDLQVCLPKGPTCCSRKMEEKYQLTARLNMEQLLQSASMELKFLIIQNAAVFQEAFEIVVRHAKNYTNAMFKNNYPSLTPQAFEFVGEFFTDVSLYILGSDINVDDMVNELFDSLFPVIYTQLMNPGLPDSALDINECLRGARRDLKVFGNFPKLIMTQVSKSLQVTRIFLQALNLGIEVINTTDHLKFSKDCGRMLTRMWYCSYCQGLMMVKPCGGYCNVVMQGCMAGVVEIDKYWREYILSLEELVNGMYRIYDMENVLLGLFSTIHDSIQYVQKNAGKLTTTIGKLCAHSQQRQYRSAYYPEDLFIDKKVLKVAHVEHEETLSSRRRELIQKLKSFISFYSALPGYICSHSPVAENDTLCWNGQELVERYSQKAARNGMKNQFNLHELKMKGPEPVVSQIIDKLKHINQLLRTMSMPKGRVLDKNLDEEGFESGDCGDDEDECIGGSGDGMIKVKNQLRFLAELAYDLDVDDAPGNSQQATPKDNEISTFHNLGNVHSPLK
# Assay: SPR
row,Binder,Kd [nM]
1,"H0610-G1dh/none-Hi-Kn010G3/L0015-k0 (antibody, V domains shown, one-arm) VH: QVQLVQSGAEVKKPGASVKVSCKASGYTFTDYEMHWIRQPPGQGLEWIGAIDGKTPDTAYSQKFKGRVTLTADKSTSTAYMELSSLTSEDTAVYYCTRFYSYTYWGQGTLVTVSS VL: DIVMTQSPLSLPVTPGEPASISCRSSQSPVHSNRNTYLHWYQQKPGQAPRLLIYKVSNRFSGVPDRFSGSGSGTDFTLKISRVEAEDVGVYYCGQGTQVPYTFGQGTKLEIK",1.31
2,"GCH056-G1dh/none-Hi-Kn010G3/L0215-k0 (antibody, V domains shown, one-arm) VH: QVQLVQSGAEVKKPGASVTVSCKASGYTFTDYEMHWIRQPPGEGLEWIGAIDGETPDTAYSQKFEGRVTLTADKSTSTAYMELSSLTSEDTAVYYCTRFYSYTYWGQGTLVTVSS VL: DIVMTQSPLSLPVTPGEPASISCRSSQPPVHSNRNTYIHWYQQKPGQAPRLLIYKVSNRFSGVPDRFSGSGSGTDFTLKISRVEAEDVGVYYCGQGTQVPYTFGQGTKLEIK",1.59
3,"GCH054-G1dh/none-Hi-Kn010G3/L0246-k0 (antibody, V domains shown, one-arm) VH: QVQLVQSGAEVKKPGASVTVSCKASGYTFTDYEMHWIRQPPGEGLEWIGAIDGETPDTAYSEKFKGRVTLTADKSTSTAYMELSSLTSEDTAVYYCTRFYSYTYWGQGTLVTVSS VL: DIVMTQSPLSLPVTPGEPASISCRSSQSPVHSNRNTYIQWYQQKPGQAPRLLIYKVSNRFSGVPDRFSGSGSGTDFTLKISRVEAEDVGVYYCSQGTQVPYTFGQGTKLEIK",0.0315
4,"GCH055-G1dh/none-Hi-Kn010G3/L0200-k0 (antibody, V domains shown, one-arm) VH: QVQLVQSGAEVKKPGASVTVSCKASGYTFTDYEMHWIRQPPGEGLEWIGAIDGETPDTAYSDKFKGRVTLTADKSTSTAYMELSSLTSEDTAVYYCTRFYSYTYWGQGTLVTVSS VL: DIVMTQSPLSLPVTPGEPASISCRPSQSPVHSNRNTYLHWYQQKPGQAPRLLIYKVSNRFSGVPDRFSGSGSGTDFTLKISRVEAEDVGVYYCGQGTQVPYTFGQGTKLEIK",1.13

# Continued, values first:
row,Kd [nM],Binder
1,0.00361,"GCH054-G1dh/none-Hi-Kn010G3/L0249-k0 (antibody, V domains shown, one-arm) VH: QVQLVQSGAEVKKPGASVTVSCKASGYTFTDYEMHWIRQPPGEGLEWIGAIDGETPDTAYSEKFKGRVTLTADKSTSTAYMELSSLTSEDTAVYYCTRFYSYTYWGQGTLVTVSS VL: DIVMTQSPLSLPVTPGEPASISCRPSQSPVHSNRNTYIQWYQQKPGQAPRLLIYKVSNRFSGVPDRFSGSGSGTDFTLKISRVEAEDVGVYYCSQGTQVPYTFGQGTKLEIK"
2,0.871,"GCH054-G1dh/none-Hi-Kn010G3/TR01L019-k0 (antibody, V domains shown, one-arm) VH: QVQLVQSGAEVKKPGASVTVSCKASGYTFTDYEMHWIRQPPGEGLEWIGAIDGETPDTAYSEKFKGRVTLTADKSTSTAYMELSSLTSEDTAVYYCTRFYSYTYWGQGTLVTVSS VL: DIVMTQSPLSLPVTPGEPASISCQASESPVHSNRNTYLHWYLQKPGQSPQLLIYKVSNRFSGVPDRFSGSGSGTDFTLKISRVEAEDVGVYYCYQGTQVPYTFGQGTKLEIK"
3,1.62,"GCH054-G1dh/none-Hi-Kn010G3/L0215-k0 (antibody, V domains shown, one-arm) VH: QVQLVQSGAEVKKPGASVTVSCKASGYTFTDYEMHWIRQPPGEGLEWIGAIDGETPDTAYSEKFKGRVTLTADKSTSTAYMELSSLTSEDTAVYYCTRFYSYTYWGQGTLVTVSS VL: DIVMTQSPLSLPVTPGEPASISCRSSQPPVHSNRNTYIHWYQQKPGQAPRLLIYKVSNRFSGVPDRFSGSGSGTDFTLKISRVEAEDVGVYYCGQGTQVPYTFGQGTKLEIK"
4,0.763,"GCH054-G1dh/none-Hi-Kn010G3/TR01L016-k0 (antibody, V domains shown, one-arm) VH: QVQLVQSGAEVKKPGASVTVSCKASGYTFTDYEMHWIRQPPGEGLEWIGAIDGETPDTAYSEKFKGRVTLTADKSTSTAYMELSSLTSEDTAVYYCTRFYSYTYWGQGTLVTVSS VL: DIVMTQSPLSLPVTPGEPASISCRSSQSPVHSNRNTYLHWYLQKPGQSPQLLIYKVSNRFSGVPDRFSGSGSGTDFTLKISRVEAEDVGVYYCYQGTQVPYTFGQGTKLEIK"
5,1.18,"GCH054-G1dh/none-Hi-Kn010G3/L0200-k0 (antibody, V domains shown, one-arm) VH: QVQLVQSGAEVKKPGASVTVSCKASGYTFTDYEMHWIRQPPGEGLEWIGAIDGETPDTAYSEKFKGRVTLTADKSTSTAYMELSSLTSEDTAVYYCTRFYSYTYWGQGTLVTVSS VL: DIVMTQSPLSLPVTPGEPASISCRPSQSPVHSNRNTYLHWYQQKPGQAPRLLIYKVSNRFSGVPDRFSGSGSGTDFTLKISRVEAEDVGVYYCGQGTQVPYTFGQGTKLEIK"
6,2.45,"GCH054-G1dh/none-Hi-Kn010G3/TR01L015-k0 (antibody, V domains shown, one-arm) VH: QVQLVQSGAEVKKPGASVTVSCKASGYTFTDYEMHWIRQPPGEGLEWIGAIDGETPDTAYSEKFKGRVTLTADKSTSTAYMELSSLTSEDTAVYYCTRFYSYTYWGQGTLVTVSS VL: DIVMTQSPLSLPVTPGEPASISCRSSQSPVHSNRNTYLHWYLQKPGQSPQLLIYKVSNRFSGVPDRFSGSGSGTDFTLKISRVEAEDVGVYYCGQGTQVPYTFGQGTKLEIK"
7,0.0119,"GCH056-G1dh/none-Hi-Kn010G3/L0262-k0 (antibody, V domains shown, one-arm) VH: QVQLVQSGAEVKKPGASVTVSCKASGYTFTDYEMHWIRQPPGEGLEWIGAIDGETPDTAYSQKFEGRVTLTADKSTSTAYMELSSLTSEDTAVYYCTRFYSYTYWGQGTLVTVSS VL: DIVMTQSPLSLPVTPGEPASISCRSSQPPVHSNRNTYLHWYQQKPGQAPRLLIYKVSNRFSGVPDRFSGSGSGTDFTLKISRVEAEDVGVYYCAQGTQVPYTFGQGTKLEIK"
8,2.59,"GCH054-G1dh/none-Hi-Kn010G3/TR01L018-k0 (antibody, V domains shown, one-arm) VH: QVQLVQSGAEVKKPGASVTVSCKASGYTFTDYEMHWIRQPPGEGLEWIGAIDGETPDTAYSEKFKGRVTLTADKSTSTAYMELSSLTSEDTAVYYCTRFYSYTYWGQGTLVTVSS VL: DIVMTQSPLSLPVTPGEPASISCQASESPVHSNRNTYLHWYLQKPGQSPQLLIYKVSNRFSGVPDRFSGSGSGTDFTLKISRVEAEDVGVYYCGQGTQVPYTFGQGTKLEIK"
9,0.000525,"GCH054-G1dh/none-Hi-Kn010G3/L0262-k0 (antibody, V domains shown, one-arm) VH: QVQLVQSGAEVKKPGASVTVSCKASGYTFTDYEMHWIRQPPGEGLEWIGAIDGETPDTAYSEKFKGRVTLTADKSTSTAYMELSSLTSEDTAVYYCTRFYSYTYWGQGTLVTVSS VL: DIVMTQSPLSLPVTPGEPASISCRSSQPPVHSNRNTYLHWYQQKPGQAPRLLIYKVSNRFSGVPDRFSGSGSGTDFTLKISRVEAEDVGVYYCAQGTQVPYTFGQGTKLEIK"
10,1.52,"GCH055-G1dh/none-Hi-Kn010G3/L0215-k0 (antibody, V domains shown, one-arm) VH: QVQLVQSGAEVKKPGASVTVSCKASGYTFTDYEMHWIRQPPGEGLEWIGAIDGETPDTAYSDKFKGRVTLTADKSTSTAYMELSSLTSEDTAVYYCTRFYSYTYWGQGTLVTVSS VL: DIVMTQSPLSLPVTPGEPASISCRSSQPPVHSNRNTYIHWYQQKPGQAPRLLIYKVSNRFSGVPDRFSGSGSGTDFTLKISRVEAEDVGVYYCGQGTQVPYTFGQGTKLEIK"
